Target: EcoSSB-WT (Escherichia coli, UniProt P0AGE0 SEQ:1-177)
Assay: EMSA; 5% TBE gel
Conditions: tags: N-terminal His6-TEV site removed; commercial EcoSSB-WT also run; chain copies: 4 stated (homotetramer in solution)

B1: 70mer polyT (ssDNA)
DNA: TTTTTTTTTTTTTTTTTTTTTTTTTTTTTTTTTTTTTTTTTTTTTTTTTTTTTTTTTTTTTTTTTTTTTT
Does B1 bind?
Result: binds

From patent publication US20150197796, “SSB METHOD” (OXFORD NANOPORE TECHNOLOGIES LIMITED, published 2015)
